Data as given in the supplement of paper PMC10567573.

B1: TOR1AIP2 (parent)
chain: HHVADAYTSSQKVSPIQIDGAGRT

Variants of: B1
Assay: protein stability index of a GFP-peptide fusion (GPS, HEK-293T) (PSI 1-6); higher = more stable
Conditions: c terminus: a fixed tail appended
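Note: lentivirally expressed fusions sorted by FACS into six bins by GFP to DsRed ratio, PSI derived from sequencing read proportions per bin multiplied by bin number.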

Protein stability index of substitutions, site by site:
K12: D 3.88; Y 3.02; F 2.47; H 3.54; V 3.47; N 3.67; C 3.06; S 3.77; T 3.59; E 3.84; Q 3.86; A 3.85; I 3.13; M 3.4; L 3.24; P 4.16; W 2.72; R 3.34; G 3.48
A4: M 4.01; Y 4.04; H 3.43; N 4.17; C 2.84; Q 3.67; L 3.99; W 3.57; P 2.34; R 3.95; D 4.76; T 2.27; I 3.01; V 3.39; G 4.25; E 4.43; F 3.42; S 3.84; K 3.86
V3: Y 1.51; F 2.34; G 2.73; K 3.19; I 4.2; T 3.1; L 3.77; R 2.95; S 2.46; C 1.75; H 2.82; N 2.04; P 4.2; A 1.62; D 2.96; E 3.12; W 2.42; Q 2.63; M 2.92
S9: E 3.11; G 3.79; T 2.82; R 3.75; D 4.04; K 4.43; L 3.28; C 1.95; A 2.91; I 2.42; H 3.77; F 2.9; Q 3.15; W 2.65; M 3.52; Y 3.78; P 2.58; V 1.62; N 3.54
T8: D 4.66; I 2.82; M 3.89; A 4.09; G 3.87; F 3.27; N 3.88; E 4.38; C 2.78; Y 3.45; R 3.49; L 4.14; P 4.38; H 4.14; K 3.49; V 3.3; Q 3.85; W 2.86; S 3.69
H2: Y 3.4; G 4.15; W 2.96; A 4.01; M 2.81; P 3.87; S 4.08; C 3.5; K 4.32; Q 2.51; D 4.75; R 3.67; L 1.86; N 4.27; F 3.77; T 3.81; I 2.08; E 4.74; V 1.99
H1: E 4.66; W 3.68; N 4.53; L 3.81; I 3.14; C 3.67; Y 3.09; V 3.86; Q 4.15; A 4.54; S 4.3; G 4.43; K 3.94; M 3.93; P 3.85; T 3.94; R 4.33; D 4.91; F 2.69
Y7: Q 4.5; H 4.84; N 4.89; K 4.65; L 4.55; M 4.7; T 4.98; W 2.12; A 5.04; D 4.67; R 4.43; E 4.97; P 4.91; F 2.73; I 4.75; C 4.19; S 4.87; V 4.62; G 4.6
A6: P 4.3; D 4.19; H 3.85; N 4.26; E 4.77; M 3.46; V 3.48; S 4.14; G 4.39; L 3.2; C 3.98; T 4.02; I 3.67; R 3.95; Y 3.32
